Experimental data from paper PMC10514306, “The CBL1/9-CIPK1 calcium sensor negatively regulates drought stress by phosphorylating the PYLs ABA receptor” (Nature Communications, 2023).

T1: CIPK1-His (Arabidopsis, UniProt Q8RWC9 1-444)
T1 construct: source: E. coli BL21 (Rosetta), purified; not shown: 6xHis, C-terminal, kept
T1 sequence (looked up): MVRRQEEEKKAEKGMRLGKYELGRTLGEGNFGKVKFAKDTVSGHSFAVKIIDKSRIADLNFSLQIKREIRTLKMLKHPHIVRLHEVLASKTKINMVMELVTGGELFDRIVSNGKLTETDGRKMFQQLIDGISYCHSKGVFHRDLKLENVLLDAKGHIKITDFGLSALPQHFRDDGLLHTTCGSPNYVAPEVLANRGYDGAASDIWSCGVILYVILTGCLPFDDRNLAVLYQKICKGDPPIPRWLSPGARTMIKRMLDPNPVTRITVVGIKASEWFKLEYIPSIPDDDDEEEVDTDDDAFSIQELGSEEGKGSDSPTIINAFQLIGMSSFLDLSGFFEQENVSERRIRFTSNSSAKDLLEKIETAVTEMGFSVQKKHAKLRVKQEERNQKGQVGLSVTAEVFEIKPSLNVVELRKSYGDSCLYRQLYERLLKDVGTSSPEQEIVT

B1: GST-PYL3 (receptor, Arabidopsis, UniProt Q9SSM7 1-209, looked up)
chain: MNLAPIHDPSSSSTTTTSSSTPYGLTKDEFSTLDSIIRTHHTFPRSPNTCTSLIAHRVDAPAHAIWRFVRDFANPNKYKHFIKSCTIRVNGNGIKEIKVGTIREVSVVSGLPASTSVEILEVLDEEKRILSFRVLGGEHRLNNYRSVTSVNEFVVLEKDKKKRVYSVVLESYIVDIPQGNTEEDTRMFVDTVVKSNLQNLAVISTASPT
notes: PYL3, ABA receptor, Arabidopsis; source: recombinant protein, purified; not shown: GST, N-terminal, kept
B2: GST-PYL6 (receptor, Arabidopsis, UniProt Q8S8E3 1-215, looked up)
chain: MPTSIQFQRSSTAAEAANATVRNYPHHHQKQVQKVSLTRGMADVPEHVELSHTHVVGPSQCFSVVVQDVEAPVSTVWSILSRFEHPQAYKHFVKSCHVVIGDGREVGSVREVRVVSGLPAAFSLERLEIMDDDRHVISFSVVGGDHRLMNYKSVTTVHESEEDSDGKKRTRVVESYVVDVPAGNDKEETCSFADTIVRCNLQSLAKLAENTSKFS
notes: PYL6, ABA receptor, Arabidopsis; source: recombinant protein, purified; not shown: GST, N-terminal, kept
B3: GST-PYL1 (receptor, Arabidopsis, UniProt Q8VZS8 1-221, looked up)
chain: MANSESSSSPVNEEENSQRISTLHHQTMPSDLTQDEFTQLSQSIAEFHTYQLGNGRCSSLLAQRIHAPPETVWSVVRRFDRPQIYKHFIKSCNVSEDFEMRVGCTRDVNVISGLPANTSRERLDLLDDDRRVTGFSITGGEHRLRNYKSVTTVHRFEKEEEEERIWTVVLESYVVDVPEGNSEEDTRLFADTVIRLNLQKLASITEAMNRNNNNNNSSQVR
notes: PYL1, ABA receptor, Arabidopsis; source: recombinant protein, purified; not shown: GST, N-terminal, kept
B4: GST-PYL2 (receptor, Arabidopsis, UniProt O80992 1-190, looked up)
chain: MSSSPAVKGLTDEEQKTLEPVIKTYHQFEPDPTTCTSLITQRIHAPASVVWPLIRRFDNPERYKHFVKRCRLISGDGDVGSVREVTVISGLPASTSTERLEFVDDDHRVLSFRVVGGEHRLKNYKSVTSVNEFLNQDSGKVYTVVLESYTVDIPEGNTEEDTKMFVDTVVKLNLQKLGVAATSAPMHDDE
notes: PYL2, ABA receptor, Arabidopsis; source: recombinant protein, purified; not shown: GST, N-terminal, kept
B5: GST-PYL5 (receptor, Arabidopsis, UniProt Q9FLB1 1-203, looked up)
chain: MRSPVQLQHGSDATNGFHTLQPHDQTDGPIKRVCLTRGMHVPEHVAMHHTHDVGPDQCCSSVVQMIHAPPESVWALVRRFDNPKVYKNFIRQCRIVQGDGLHVGDLREVMVVSGLPAVSSTERLEILDEERHVISFSVVGGDHRLKNYRSVTTLHASDDEGTVVVESYIVDVPPGNTEEETLSFVDTIVRCNLQSLARSTNRQ
notes: PYL5, ABA receptor, Arabidopsis; source: recombinant protein, purified; not shown: GST, N-terminal, kept
B6: GST-PYL4 (receptor, Arabidopsis, UniProt O80920 1-207, looked up)
chain: MLAVHRPSSAVSDGDSVQIPMMIASFQKRFPSLSRDSTAARFHTHEVGPNQCCSAVIQEISAPISTVWSVVRRFDNPQAYKHFLKSCSVIGGDGDNVGSLRQVHVVSGLPAASSTERLDILDDERHVISFSVVGGDHRLSNYRSVTTLHPSPISGTVVVESYVVDVPPGNTKEETCDFVDVIVRCNLQSLAKIAENTAAESKKKMSL
notes: PYL4, ABA receptor, Arabidopsis; source: recombinant protein, purified; not shown: GST, N-terminal, kept
B7: GST-PYR1 (receptor, Arabidopsis, UniProt O49686 1-191, looked up)
chain: MPSELTPEERSELKNSIAEFHTYQLDPGSCSSLHAQRIHAPPELVWSIVRRFDKPQTYKHFIKSCSVEQNFEMRVGCTRDVIVISGLPANTSTERLDILDDERRVTGFSIIGGEHRLTNYKSVTTVHRFEKENRIWTVVLESYVVDMPEGNSEDDTRMFADTVVKLNLQKLATVAEAMARNSGDGSGSQVT
notes: PYR1, ABA receptor, Arabidopsis; source: recombinant protein, purified; not shown: GST, N-terminal, kept

target: T1, CIPK1-His; experiment: pull-down; 5 ug GST-PYR1/PYLs on GST resin at 4 C for 2 h, then 2 ug CIPK1-His for 2 h in pull-down buffer; 6 washes; blots with anti-His and anti-GST; conditions: both partners purified

Binding result, binds:
B1
B2
B3
B4
B5
B6
B7
